Legend:
[1] = target: SbtB ΔT-loop (T-loop Arg43-Ser52 truncation variant of SbtB) (Synechocystis sp. PCC 6803); assay: cryo-EM structure
[2] = target: sodium-dependent bicarbonate transporter SbtA (Synechocystis sp. PCC 6803); assay: cryo-EM structure

With “SbtB ΔT-loop (T-loop Arg43-Ser52 truncation variant of SbtB) (natural protein)” the stoichiometry N [1] was 3.

For “sodium-dependent bicarbonate transporter SbtA (natural protein)”, the stoichiometry N [2] was 3.
